For the assay, the target named is T1, N-terminal cytosolic domain of Band 3 (residues 1–395) (human, UniProt P02730 1-395).
T1 sequence (looked up): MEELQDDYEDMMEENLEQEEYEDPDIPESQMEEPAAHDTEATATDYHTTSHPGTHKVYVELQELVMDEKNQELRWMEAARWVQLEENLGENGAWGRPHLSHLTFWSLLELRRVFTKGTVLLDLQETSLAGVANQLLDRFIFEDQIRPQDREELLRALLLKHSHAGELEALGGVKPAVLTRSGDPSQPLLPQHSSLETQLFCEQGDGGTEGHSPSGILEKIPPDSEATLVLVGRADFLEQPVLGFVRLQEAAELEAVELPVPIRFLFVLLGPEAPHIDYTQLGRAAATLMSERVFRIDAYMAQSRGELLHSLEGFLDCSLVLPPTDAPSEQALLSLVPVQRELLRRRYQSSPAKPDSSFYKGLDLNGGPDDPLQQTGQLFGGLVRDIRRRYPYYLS
Put plainly: ITC. (In ITC the heat of successive injections is recorded.)

The source of these data is paper PMC12923992 (Cell metabolism, 2026).

For orientation: Kd means the constant that tells how readily two partners part at equilibrium. Lower therefore signals a tighter complex.

B1: recombinantly-expressed human GAPDH (enzyme)
chain: not shown
Molecule B1 yielded a Kd of 1180 nM.
